For 19 sequences, protein production results are on record in a protein production outcome set (Wang et al. 2014).

The data set in a line: label from the status in PepcDB records.

Regarding “MLYVVGIGPGNEEYFTKEAENALNSVDLIVCYTGYKKYIERFDTEIYVSGMTKEVERVEYALKEAENKNVALVSNGDATIYGLASLAYELNEKNLHNVTINVVSGL”, the protein production result was “failed”. As to “MMAPNQFSSGDVIADRRADYARMLAESGDYPAAAELMEQALELAPRWTAGWFRFGEYHEKAGETAKAVAAYEKVAELDAEGLFAAELKLAVLGAAETPEQPPSRYVEGLFDDYADRFETSLVEKLDYSVPQKLAELIGKAATGDAFDTIVDIGCGTGLLGIEIRSLAKRLEGFDISQNMLAKADEKSLYDHLGQADLSLDAEASGLFTPVLTQHRADLVAAADVMMYLGSLETVMPLVSALLKPSGFFAFSVEDAGDEQGFVLRESLRYAHSKSYVIDLLERSGFSPMEIRKTTIRKDAGKPLSGILFLARAKA”, the protein production result is on record as “failed”. To “MMARVEKLRELMKENNLQGFLVTSPYNLRYLTNFTGTTGLAMITLDKAFFVTDFRYTEQAAEQATGFTIVKNTGHIFDEVADLAERLQLDNLAFEETQVSFADYSLLEEILPCELVPVMGLIEELR” belongs “not failed”; to “MMDCDHLLRLGMTAKKILENGKGILAADETPKTLGRRFEKLGITNTEENRRKFREILFSTKGIERYIGGVILNQETFEQTSGSGVPLTELLKKKGIEIGIKLDKGLIDYKEKEKISVGLEDLDLRCKSSAFKDATFAKWRSLFYFYDGIPSEDCINENCSILAKYAIICQKNGLVPIVEPEVFLEGDYSMKRSYEVTRQILSTLMKYLNYELVYIPGVLIKASYVTSGQLSNEKYTPKKVATFTLRALLSTIPCGIPGIVFLSGGHGSEDAIGFLNAINMERGCRTWSLSFSFARALTDGVLETWRGDDSNIEEAQKILLETSFKACRGAEGKLWDQE”, “not failed”.

For the sequence “MMDIVEIIIGFIALLMTARIFLERSRARKLLYLCCLSFCISALIALYVDSPMGGIVAITYFICSTISSNAIAYTIEQTKHIE”, the protein production entry is reported as “failed”. For “MMDYLITQNGGMVFAVLAMATATIFSGIGSAKGVGMTGEAAAALTTSQPEKFGQALILQLLPGTQGLYGFVIAFLIFINLGSDMSVVQGLNFLGASLPIAFTGLFSGIAQGKVAAAGIQILAKKPEHATKGIIFAAMVETYAILGFVISFLLVLNA”, the protein production result is on record as “not failed”. For the sequence “MMFLHGSRQAVIAALVGLVITVTAFSYLRYQENQVVHDALEAETYNLQRDIRQSLVSHLFVAELLAREWERSDLSIEERWKENADIVTLYYQNVQGITWLNDELDIELIYPQNEQPELLGTPFAKTPLLEKLKASEGNRHAMMGPAGNLGRISSDIAIFVRVEQQDQTHGFLGFVISLQSLFNNVVRSNISEGFQLSVRSDNDILYQFAGDTSLREEWSHFHSLQLVGNSWELSVWPTAGHLEQLRGGISLAALIAGLLVTSMLTFVLYILGQSRFKAQQLADSNIELYSEIDERERIEKQMAYLAEHDSLTGLVNRNALKRILGEWLETESPHKKAALLFIDLDRFKEVNDALGHTVGDELLRRVARRITKLAPKGSVLARAGGDEFLLAIAKPDSRESIIKLSEQMLQALDTHFFVDVYELFISASIGVTFADDADFNAEYFIRNADTALYQAKEHGRNTYKVYDKAIHRDLTKKLELVKRLRHAVSKQQLTVYYQPKVELGSRRISGLEALVRWVDDDGSIIPPDEFIPLAEDTGLIIPISEYVMEEAFLQLKQWHELGFDELSIAINISGKQLHLADLVDDIMERVNEAQIPPNKVELELTEQVFIENIQSHTRFMHSVREQGMSLAIDDFGVGYSSLSYLKNFPVTSLKIDRSFVRDLPHNEDDATITQTIISLARNLNLQLVAEGIETEEQVEFLLQRECSTGQGFLFSKPVPARQITELLQQYKGLIPIQIA”, the protein production entry is on record as “failed”. Turning to “MMGSVLPAEALVLKTGLKAPGLALAEVITSDILHSFLYGRWRNVLGEQLFEDKSHHASPKTAFTAEVLAQSFSGEVQKLSSLVLPAEVIIAQSSIPGEGLGIFSKTWIKAGTEMGPFTGRVIAPEHVDICKNNNLMWEVFNEDGTVRYFIDASQEDHRSWMTYIKCARNEQEQNLEVVQIGTSIFYKAIEMIPPDQELLVWYGNSHNTFLGIPGVPGLEEDQKKNKHEDFHPADSAAGPAGRMRCVICHRGFNSRSNLRSHMRIHTLDKPFVCRFCNRRFSQSSTLRNHVRLHTGERPYKCQVCQSAYSQLAGLRAHQKSARHRPPSTALQAHSPALPAPHAHAPALAAAAAAAAAAAAHHLPAMVL”, the protein production result is given as “failed”.

Take “MMHISVGATEMSWLSSLKSVFSPSQEVKEDDVQTILQSYSLENSSFVLKDRITQINVEGRILQLTIKTFPEEADHLQQIHDELADALQKAGIQELNLHVIQQKTAPRTEPKSSSSTTSSSSHLPPVVDASASPTPDPNNPPIQKKAPIQSEVPAHPRIKNVILVSSGKGGVGKSTTTVNLALALQKQGLKVGVLDADIYGPSIPTMLGNAGRTPKIENENFVPLDAYGLAVLSIGHLTGDNNTPVAWRGPKATGALMQLFNQTLWPDLDVLVIDMPPGTGDIQLTLAQRIPVTGALIVTTPQNVALLDASKGIELFNRVGIPVVGVIENMSTHICSNCGFEEQIFGVGGGDKLSEQYDIPLLGRLPLNAQIRENADKGQPSVIAQDTAAESYQMIAQALWTRVEQLPQRARDDKRIFLEHHHHHH”: the protein production result is given as “failed”. For “MMHYGVLALTFLSVNLDFFLMLVFLLKKYRLWQVLLGYLLGNLILLTASFFVGKALTLFLPEWLLGFLGVLPIWLAFHDDDDDTADRAGGSPVINVLVTYLAVCAGCNLSIFLPVLVGESMVHFVMTLGFIGILTMLVVLIINQVAEIKAVQKQIAAHGERLMKICYVVIGLYVFWDSGLISHLIAFL”, the protein production entry is “failed”. For “MMINRINLTDIRSFVLIARLGNFTKAAETLDVSRSHVSRQISSLEKQMGVTLLIRTTRTLRLTEAGKHFYHQCEQALHTIDQALLSAVDDVEKVQGEIKINCVGGYLGEVFLADIVNTFMQQYPDVSISLDFSSNRVDLIEEEFDIAFRMGSLEDSGFVAKKLLDIEMGTLASPKYLQQYGRPSHPKELQQHHCLTGSVRKWHFQSLVNKEHYDVSIKGNLQCKNGRVLVAGAIAGNGIIRVPLIYCQQELDDKKLVQVFEEWGIPTVDFSAIYHRDRYQPKRIRTFIDFVKQYSDSLFT” the value was “failed”; for “MMKEFTPAPDSASIVSVTDRVKPVALGMGVTSVHFLGDRAAFVGGEENVAFVDSQGEITTVAVHGGGILSTASDGKRLVMGGDDGKVVSLDAKGEVTLLATDPKRRWIDAVALHADGAFAWSAGKTATVKSGKTEEKSLEVPSTVGGLAFAPKGLRLAIAHYNGATLWFPNMAASAEFLPWAGSHHAVTFSPDNKFLVTAMHEPALHGWRLADNRHMRMTGYPGRVRSMSWSAGGKALATSGADTVILWPFGSKDGPMGKEPAMLAPLQARVSVVACHPKNDILAAGYSDGTVLMVRLEDGAEILVRRNGTPPVAALAWNAKGTLLAFADENGDGGLLEL”, “failed”. Take “MMKEMTVQQMTEKVLNKESLFILDVRNESDFRDWKIEGENFAYLNVPYFELVHGVDSIVDRLPKDQDIVVVCAKGGSAAFVAEQLAEAGFDNVYTLAGGMQAWSEHLHQAKVYEDDQLKIYQFIRVGKGCLSYMVLSGDEALVVDPLRFIDVYEQVAQQEGVTITHIVDSHLHADHLSGGKALAERTGAAYYLMKSEGAVFDFEPLEQHETIDFENVHLEVLAVKTPGHTPGSVSFFVNGKWLFSGDTIFVGGLGRPDLGGKVAEWAEDLYHTVYEKVAAMADDVIVLPAHYANLDEEINAEGYVGDTLGRIRARNEMMQNKAKDEFIDLVIQGAKTETPPNFEDIVAINRGLKTVDIETQRELEIGPLEHHHHHH”: the protein production result is listed as “not failed”.

As for “MMKIYLIEHVIGAVAYDENGNIVDYITNPRDLGKITEELLNNEKGIPFSATVELLKKVNPQEVVVENEAEVPKLQALGYRVSYEPYSKVSRIFRESLPKVAIDIKFASNEEDYYNFLHELSLEYTRRKLRSAAQKRDLLAIQAVRAMDDIDKTINLFSERLREWYSIHFPELDKLIEDHEEYATIVSRFGDRGFLTIDSLKELGFNEQRINRILDAAKKSIGADISEDDLSAMRMIANTILDLYNIRRNLNNYLEGVMKEVAPNVTALVGPALGARLLSIAGSLDELAKMPASTIQVLGAEKALFRALRSGGRPPKHGIIFQYPAIHTSPRWQRGKIARALAAKLAIAARVDAFSGRFIGDQLNEQLKKRIDEIKEKFAQPPPKKPQQQKPQQPQKQQAKGKKGGKRRGKRK”, the protein production entry was “failed”. To “MMKNFVCTTCGVQYAASVEEPVSCHICDEERQYVNPKGQSWTTLENLQTDDTYKNEIIKEENGLYSITTKPGFAIGQTAFVVKTESYRLLWDCITYLDETTITKIKELGGLDAIALSHPHYYSTQVEWAETFDVPIYIHEDDKEWVMRPSSRIIYWSGESLQLADGITVHRLGGHFSGGSVLHWEEGNDGKGILLTGDIIQVVADERWVSFMYSYPNLIPLPARKVEEMVNRVKPLQFNRLYNAFHRVVKENANEAVERSAERYIKAIEGKLFHT” belongs “failed”; to “MMKNMILPIAFTALIASMTACSDETDPILTQKNWDGTATYFQSSDEHGFSMYYKPQVGFVGDPMPFYDPVAKDFKVMYLQDYRPNPEATYHPIFGVATKDGATYESLGELISCGGRDEQDAAIGTGGTIYNPADKLYYTFYTGNKFKPSSDQNAQVVMVATSPDFKTWTKNRTFYLKGDTYGYDKNDFRDPFLFQTEDGVYHMLIATRKNGKGHIAEFTSADLKEWESAGTFMTMMWDRFYECPDVFKMGDWWYLIYSEQASFMRKVQYFKGRTLEDLKATTANDAGIWPDNREGMLDSRAFYAGKTASDGTNRYIWGWCPTRAGNDNGNVGDVEPEWAGNLVAQRLIQHEDGTLTLGVPDAIDRKYTSAQEVKVMAKDGNMIESGKTYTLGEGASVIFNRLKVHNKISFTVKTASNTDRFGISFVRGTDSASWYSIHVNADEGKANFEKDGDDAKYLFDNKFNIPADNEYRVTIYSDQSVCVTYINDQLSFTNRIYQMQKNPWSLCCYKGEITVSDVQVSTY”, “failed”. As to “MMKRVNSHGSDYWRKNGCDFTDHRAFAPVKILDVAQIKENPMSEQIELIRLAIFFSVLVICALWESNRPRKTLSQSKRVRWLNNLGLVGFNSLLITALMPILAFSAAQWAQSQQFGLLYWLEIPPFIALFVAVVLLDAVIYWQHLLFHRIPLLWRLHRMHHADQDIDVTTGSRFHPLEIMISAWIKIGAVTLLGASPLAVVVFEILLNASAMFNHSNAKLPYKIDQWLRLLVVTPDMHRVHHSVLVHETHSNFGFFLSIWDKMFHTYIAQPEMGHERMKIGLPLFRQAREQWLDKMLTQPFRER”, the protein production entry is “failed”.

As to “MMLITERRSPFYPNIQNVPPSVIRKLVKNKAITLIDVRQPWEYEDHHIPGSILLPLDYFKELFPLVLSKNNLVKNGVAIICEHANRSTWLVYTEPSLFKEVKVYNMLGGIELWMIMGYEIEKGMDDNGTLWYKLLTKNLGLEHHHHHH”, the protein production entry is listed as “failed”. For “MMLLLPEFGYVSLLLAVCVGVATALLTFSGYTLRWSGTYRLARCWTLVLFGLVLFAFVALTLSVVQDDFSVNYVAQHSHRDLPLGLKIAAVWGGHEGSLLLWLLCLSGWSATFACRYRKAMSDLFPLTLAMLAVIATALLVFIVFFSDPFVRLFPPAVAGRDLNPMLQHIGLILHPPLLYLGYGGLTVSAALALAALIHGEFTAPAAWICWRWTLPAWSLLTLGIILGSWWAYNELGWGGWWFWDPVENASLLPWLTASALLHSLSVTRMRGIFRHWSLILALLTFILCLLGTLIVRSGILVSVHAFALEHDRAVPLFILFACLSMAALAVYGWRAQLVHSAARFSGWSREMAILLVLLLFSAVALVVLLGTLYPMIYGLAGWGKISVGAPYFNRVLLPFAGLMLLLIGVAAGGYWKRSTRWPVWHLGVTLAVGVVTALVLWPYGYDVALASGLIGWVMAAQWLQPLLALRQQLPALLAHTGVVLFALGIAFSAGSKQEISANVGQGEQVTLGDYQFHFLQLDLVAAQNYTAEQAVIAIYRGDSPIARVIPERRYYNARKQQMIEPGIAWGPIREWYAVMGEKTGENRYAMRFYVQTGVRWVWGGGMLMVAGALLGWFRGRRVYD” the value was “failed”.
